In the supplement of paper PMC10567573:

B1: FAM46C (parent)
chain: VRSRLEEAGIKVHDVRLNGSAAGH
B2: CLCN6 (parent)
chain: TGLVGLFVDFFVRLFTQLKFGVVQ

Variants of: B1
Test: protein stability index of a GFP-peptide fusion (GPS, HEK-293T) (PSI 1-6); higher = more stable
Settings: c terminus: a fixed tail appended
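Further: lentivirally expressed fusions sorted by FACS into six bins by GFP to DsRed ratio, PSI derived from sequencing read proportions per bin multiplied by bin number.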

Protein stability index: each site, then its substitutions
L17: C 2.61 | V 2.67
V1: T 4.25
E7: T 2.51
S20: P 1.95
L5: Q 5.12
R2: L 2.34
D14: E 2.4
A21: Q 1.72
A8: P 3.88 | H 3.12
S3: K 1.37 | Y 1.53

Variants of: B2
Test: as above
Settings: c terminus: a fixed tail appended

Protein stability index of substitutions, site by site:
G21: I 2.94 | D 2.38 | V 3 | P 2.35 | E 2.3 | R 3.56 | F 3.79 | W 3.59 | Y 3.39 | A 3.26 | N 2.38 | C 1.86 | H 3.06 | L 3.33 | K 3.7 | T 2.4 | S 3.08 | M 3.39 | Q 2.77
F10: R 2.82 | I 2.21 | M 1.81 | T 2 | Q 1.85 | D 2.75 | K 1.98 | C 1.42 | N 2.32 | H 1.61 | Y 2.27 | W 2.7 | S 1.8 | E 2.19 | V 2.42 | P 2.17 | L 1.77 | G 1.29 | A 2.34
F7: Q 2.03 | S 1.82 | V 3.05 | Y 2.54 | W 2.28 | R 1.69 | T 2.35
R13: Y 2.62 | M 3.23 | D 1.83 | F 2.96 | I 2.59 | E 2.34 | N 1.91 | K 2.73 | S 1.84 | T 2.19 | V 1.76 | C 2.09 | Q 1.81 | A 2.04 | H 2.22 | W 2.1 | P 3.13 | G 1.54
K19: E 4.38 | L 2.56 | H 3.23 | D 3.05 | Y 2.85 | G 1.98 | F 1.89 | T 2.33 | W 3.05 | P 1.91 | V 2.66 | Q 2.89 | M 3.13 | R 2.17 | N 2.21 | S 2.92 | A 2.84
F20: H 2.58 | D 4.13 | G 2.89 | W 2.63 | Q 3.83 | I 2.97 | L 2.96 | E 3.61 | Y 2.55 | C 3.79 | S 3.86 | K 4.3 | A 3.03 | T 3.48 | N 3.99 | R 4.55 | M 2.77 | V 2.84 | P 2.12
D9: H 2.61 | L 1.86 | K 3.08 | G 2.47 | R 3.51 | M 1.89 | C 1.25 | Q 2.24 | T 1.97 | P 1.92 | Y 1.89 | A 1.59 | E 2.12 | W 1.51 | S 2.15 | N 2.87 | F 2.17 | I 2.68
Q24: S 2.94 | K 3.16 | W 2.36 | H 2.07 | D 2.46 | L 2.14 | E 2.08 | G 2.32 | P 1.88 | T 1.6 | I 2.66 | V 1.71 | C 1.26 | F 1.18 | R 3.77 | A 1.66 | Y 1.74 | M 1.9 | N 2.55
V8: Q 2.05 | P 1.7 | W 3.01 | S 1.76 | H 2.77 | C 2.25 | N 2.27 | M 2.08 | I 1.74 | F 2.04 | E 1.38 | R 2.25 | L 3.04 | D 2.45 | T 1.9 | G 2.9 | Y 2.79 | K 2.04 | A 1.6
V23: N 2 | R 3.09 | Y 2.51 | P 1.97 | W 3.3 | F 2.98 | D 2.41 | S 2.73 | H 1.81 | Q 2.77 | G 2.18 | M 2.68 | A 2.27 | L 2.92 | E 1.94 | K 2.45 | T 2.36 | C 2.78 | I 2.23
F11: M 2.16 | P 2.07 | W 2.35 | S 1.77 | V 2.65 | R 2.75 | D 4.03 | C 2.93 | E 2.4 | T 2.01 | N 2.88 | Q 3.25 | G 1.76 | H 2.21 | A 2.84 | L 2.32 | K 3.06 | I 2.29 | Y 2.32
Q17: S 2.81 | C 2.01 | A 2.38 | R 3.5 | W 3.5 | P 2.08 | D 1.81 | I 1.79 | N 2.44 | E 2 | G 1.77 | Y 2.06 | T 2.12 | M 2.09 | F 2.44 | V 2.14 | L 2.43 | K 2.48 | H 2.26
V12: W 2.95 | P 1.78 | S 2.45 | L 1.95 | I 2.02 | H 2.09 | K 1.91 | Y 3.07 | F 2.1 | M 2.47 | N 1.56 | A 2.11 | E 1.96 | D 1.73 | Q 2.52 | C 2.71 | T 2.08 | R 2.04 | G 2.11
F15: M 1.77 | N 2.67 | L 1.96 | G 2.95 | A 1.96 | C 2.2 | R 2.27 | S 2.76 | K 2.12 | D 2.88 | P 2.86 | W 3.46 | T 2.51 | V 2.72 | H 2.71 | Y 2.73 | Q 3.33 | I 3.25
L14: G 1.68 | S 2.19 | K 2.34 | Q 1.55 | P 1.68 | T 1.99 | A 1.61 | M 2.27 | C 2.1 | H 1.85 | W 2.8 | D 4.06 | N 1.83 | Y 2.25 | R 1.86 | I 2.25 | V 2.02 | F 2.57
L18: R 2.74 | T 2.75 | P 2.63 | M 2.48 | K 2.02 | F 2.46 | N 3.66 | D 2.25 | W 1.66 | H 3.39 | C 2.36 | Y 3.06 | V 1.98 | S 2.03 | A 1.97 | I 2.7 | G 2.21
V22: I 2.84 | T 2.18 | L 2.5 | E 3.23 | H 1.92 | K 2.26 | S 2.33 | P 2.07 | G 1.72 | N 1.25 | Y 2.36 | M 2.58 | W 2.72 | Q 2.48 | A 1.77 | F 2.6 | C 1.87 | R 2.34
T16: F 2.04 | Y 1.98 | E 1.75 | D 2.42 | W 3.32 | Q 3 | N 3.55 | P 1.8 | H 2.78 | C 1.99 | S 2.91 | V 1.78 | M 2.35 | R 3.85 | G 2.81 | I 2.41 | L 2.02 | A 2.43 | K 2.76
